Assay results from article PMC8041869.

Biological target: SARS-CoV-2 S-protein S1 subunit (SARS-CoV-2)
Assay: ELISA

## human ACE2 extracellular domain, wildtype, Fc-tagged dimeric form (from UniProt Q9BYF1-1 18-615) (Fc fusion)
  EC50: 10.4 nM
